From the nanobody polyreactivity screen of Harvey et al. (2022)

Assay: yeast display, Sf9 membrane polyspecificity reagent, FACS + sequencing; frameworks hold sequencing errors
How it was run: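 In a synthetic yeast display library (Saccharomyces cerevisiae BJ5465), nanobody expression was induced with galactose for 36–48 hours. FACS gates were set low and high (top ~1%) using anti-HA fluorescence for expression and streptavidin fluorescence for binding of the Sf9 membrane reagent. Each polyreactivity label is drawn from the gate of origin.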

Sequence	polyreactivity (PSR sort gate)
QVQLVESGGGLVQAGGSLRLSCAASGSIFYPNAMGWYRQAPGKERELVAAITTGGSTNYADSVKGRFTISRDNAKNTVYLQMNSLKPEDTAVYYCNARHRYHSYTQPRWKYVYWGQGTQVTVSS	low polyreactivity
QVQLVESGGGLVQAGGSLRLSCAASGRTFHAYAMGWYRQAPGKGRELVAAITRTGTTHYADSVKGRFTISRDNAKNTVYLQMNSLKPEDTAVYYCAAQHVRVDAQFVLQGYDYWGQGTQVTVSS	low polyreactivity
QVQLVESGGGLVQAGGSLRLSCAASGGTIIGYAMGWYRQAPGKERELVAAITSGGSTYYADSVKGRFTISRDNAKNTVYLQMNSLKPEDTAVYYCAKSYGGLGSIYRFYYWGQGTQVTVSS	low polyreactivity
QVQLVESGGCLVQEGGSLRLSCAASGFTFRWYTMGWYRQAPGKERELVASIRYGGGSTYYADSVKGRFTISRDNAKNTVYLQMNSLKPEDTAVYYCAAYVRTYRGYYWKAFDYWGQGTQVTVSS	high polyreactivity
QVQLVESGGGLVQAGGSLRLSCAASGYTFGIYTLGWYRQAPGKERELVADISSTGTTKYADSVKGRFTISRDNAKYTVYLQMNSLKPEDTAVYYCAVRPFWYRMDYWGQGTQVTVSS	low polyreactivity
QVQLVESGGGLVQAGGRLRLSCAASGLTFPPNAMGWYRQAPGKERELVADSGGSTNYADSVKGRFTISRDNAKNTVYLQMNSLKPEDTAVYYCAAPPYSDGQWDDYWGQGTQVTVSS	low polyreactivity
QVQLVESGGGLVQAGGSLRLSSAASGLIFSVNAMGWYRQAPGKESEMIAAISKSGGRTYYADSVKGRFTISRDNAKNTVYLQMNSLKPEDTAVYYCAKRSRWNYKGYGTCGYYWGQGTQVTVSS	high polyreactivity
QFQLVESGGGLVQAGGSLRLSCAASGYTFGNYAMGWYRPAPGNVRVLVAGISWSGGSTYYADSVKGRFTISRDNAKNTVYLQMNSLKPEDTAVYYCATRVQGYHNGWYAYLGQGTQVTVSS	high polyreactivity
QVQLVESGGGLVQAGGSLRLICAASGFIFFINDMGWYRQAPGKEREWVAAISWSGGSTYYADSVKGRFTISRDNEKNNFYIQMNSLKAEETAGYYFKTDVPTAQYDYWGQGTQVTVSS	low polyreactivity
QVQLVESGGGLVQAGGSLRLSCAASGRIIGYYAMGWYRQAPGKERELVAAISRRGGSTYYADSVKGRFTISRDNAKNTVYLQMNSLKPEDTAVYYCATLTLESFSALYYWGQGTQVTVSS	low polyreactivity
QDQHVESGGGLVQAGGSLRLSCAASGRTFYQYAMGWYRQAPGKERELVAVINGGGSTNYADSVKGRFTISRDNAKNTVYLQMNSLKPEDTAVYYCNAGSVSDRQMDYWGQGTQVTVSS	low polyreactivity
QVQHVESGGGLVQAGGSLRLSCAASGSIFTVYAMGWYRQAPGKERELVAGITSGGNTNYADSVKGRFTISRDNAKNTVYLQMNSLKPEDTAVYYCAARIYGYVTYGYWGQGTQVTVSS	low polyreactivity
HVQLVESGGGLVQAGGSLRVSCAASGRTFWSYTMGWYRQAPGKERELVASITYRGGSTYYADSVKGRFTISRDNAKNTVYLQMNSQKPEDTAVYYCNARYKRYSYDYWGQGTQVTVTS	high polyreactivity
QVQLVESGGGIVQAGGSLRLSFAASGSTFNSNVMGWYRQAPGKERELVAAISRSGGNTYYADSVKGRFTISRDNAKNTVYLLMNSLKPEDTAVYYCNKAGRYPYDYWGQGTQVTVSS	high polyreactivity
QVQLVESGGGLVQAGGSLRLSCAASGRTFGLNAMGWYIQAPGKERELVAAISGSGGRTYYADSVKGRFTISRDNAKNTVYLQMNSLKPEDTAVYYCARVPSGQLEYDYWGQGTQVTVSS	high polyreactivity
QVQLVESGGGLVQAGGSLRLSCAASVLIMGYYAMGWYRQAPGKERELVAAISSTGSTNYADSVKGRFTISRDNAKNTVYLQMNTLKQEDTAVYYCAAVPPRKDYQHMDYWGQGTQVTVSS	low polyreactivity
QVQLVESGGGVVQAGGSLRLSCAASGYTFLPYAMGWYRQAPGNARELVAAITVRGGRTYDADAVKGRFTISRHNAKKTVYLQMNSLKPEDTAVYYCHTDAYRLGYDYWGPGTQVTVSS	high polyreactivity
